Data on 6 substances can be found in patent US5968514.

Where “and” joins values, the source holds several entries; their conditions need not be identical. Equal values may be shown once.

Usually IC50 stands for the midpoint of a concentration-inhibition curve. Read a low IC50 as greater potency in that assay.

The target in assay [1] is human class II MHC molecules on Raji cells.
The target in assay [2] is class II MHC antigens on antigen-presenting cells of human peripheral mononuclear cells.
The target in assay [3] is human class II MHC molecules on Raji cells. The assay is described as follows: competition with ^125 I-HIV-1 Nef(123-160) on Raji cells.
For assay [4], the target named is class II MHC antigens on antigen-presenting cells of human peripheral mononuclear cells. This is another data set of the same source.
Assay [5] has the same target. This is another data set of the same source.
For assay [6], the target named is HLA-DR on Raji cells (human). Description: antibody blocking of labelled peptide binding to Raji cells.
Assay [7] has as its target murine class II MHC molecules on A20 cells (I-A^d and I-E^d). Description: dose-response competition with ^125 I-SEA on A20 cells.
For assay [8] the target is unchanged.
Assay [9] addresses human class II MHC molecules on Raji cells. Description: competition with ^125 I-SEA on Raji cells.
Assay [10] deals with murine class II MHC molecules on A20 cells (I-A^d and I-E^d). Description: competition with ^125 I-MMTV ORF(76-119) on A20 cells.
For assay [11], the target named is human class II MHC molecules on Raji cells. The source holds these as a separate data set.
Assay [12] deals with DR1 on DR1-transfected L cells (Homo sapiens (Human)) (UniProt P01903).

Turning to HIV-1 Nef(123-160) (peptide), the percent reduction of ^125 I-SEA binding in [1] was 20% and 40%. In assay [2], this substance showed a stimulation index (SI) of human PMNC proliferation induced by Nef of 3.9 SI and a stimulation index (SI) of human PMNC proliferation induced by SEA of 6.2 SI. For the same substance, the IC50 in assay [3] was 30000 nM.

In assay [3], SEE (from UniProt P12993) (ligand) came in with an IC50 of 2000 nM.

Take “HIV-1 Nef protein (from UniProt P03406) (ligand)”: in assay [4], the IFNγ (U/ml) in supernatants of whole PMNC, 96 h was 1500 U/ml. In [5], the stimulation index (SI) of proliferation of whole human PMNC worked out at 26.4 SI.

In the case of “Clone L243, a monoclonal antibody specific for HLA-DR”, in assay [6], the percent reduction of ^125 I-HIV-1 Nef(123-160) binding turned out to be 35%.

On to “staphylococcal enterotoxin A (from UniProt P0A0L2) (ligand)”, for which, in [4], the IFNγ (U/ml) in supernatants of whole PMNC, 72 h stood at 3000 U/ml. Moreover, in [7], the fold more effective a competitor than MMTV ORF(76-119) is 20 times. For the same substance, the CPM bound in the absence of competitors in assay [8] was determined as 6380 CPM; in [11], 31500 CPM; in [12], 5710 CPM. The IC50 came to 200 nM in assay [9] and 1800 nM in assay [10]. This substance also had a stimulation index (SI) of proliferation of whole human PMNC in assay [5] of 164 SI.

In the case of HIV-1 Nef(156-186) (peptide), in assay [2], the stimulation index (SI) of human PMNC proliferation induced by Nef stood at 19.6 SI and the stimulation index (SI) of human PMNC proliferation induced by SEA worked out at 16.6 SI.
